Experimental data: the DeepSol protein solubility set

Experiment: soluble on expression in E. coli; label from the status in PepcDB or PDB records

Row | Sequence | soluble on expression in E. coli
1 | MGSDKIHHHHHHMNLRRRGIVVSFHSNMVTVEDEETGERILCKLRGKFRLQNLKIYVGDRVEYTPDETGSGVIENVLHRKNLLTKPHVANVDQVILVVTVKMPETSTYIIDKFLVLAEKNELETVMVINKMDLYDEDDLRKVRELEEIYSGLYPIVKTSAKTGMGIEELKEYLKGKISTMAGLSGVGKSSLLNAINPGLKLRVSEVSEKLQRGRHTTTTAQLLKFDFGGYVVDTPGFANLEINDIEPEELKHYFKEFGDKQCFFSDCNHVDEPECGVKEAVENGEIAESRYENYVKMFYELLGRRKK | not soluble
2 | MGSDKIHHHHHHMNLTGCGEKFYQHCKVILSEFEWATYEISYNQQYPEGELKLNTPMSFSNIFLQHIISDFIEKYPSIKIDLFMTDQLLDVNQHKFDLTIRLDGSAPSLANSKILNTYQRYLYATPEYFNQHGLPTSLEELKEHKFLIYYQDSRHKKLIFQKDQKEVSFNCFPVMTCNNGELLLDMCLKDHGIVFLPEFIAEPYYKEGKLQKCLEDYTSQPLHLYVTWPNRKILSKKVKLFIDFLTHQIIPIK | not soluble
3 | MGSDKIHHHHHHMNNIIATILKYAGLEGKAVIPLKGATSSYVFRAGDSVFRIHTNPAWLEQEPDLVAHEVFALRATGRLGPDVENYQLTWEGEIPPWIQMTCLPGEVRLEPLNRAYLKQLAKTLVAIHQLPVPEARYQYAPYVTKRTVPFWAVQKEMWQRAVAEPPATSQQVRFIHRDFHPVNVLYESAEKYNVVDWINGCVGPIEADVAHCRLNLMLLESVEAADQFLAEYIAYSGFSYDRKWDLTAVFDFEPDTLNVYPGWKAYGKANISQGNVRERMENIVLKVYENDESGY | not soluble
4 | MGSDKIHHHHHHMNPPKRLLVIHRALAPYRIELLNTLSAAFDTHIYFEFASPIEQRFDAGELAKRVHFQSSVLPPAPKIPGLKNFRPYAASLVRSLRPDVVLCSEFNLLTLTLTAASRLFSPKTKLYVLCDDNEQMAEAELHYGRGLKHRMLSYVEGVILCDSRACDLYASRFATLDRERFVYLPIVQDEKVLRPLYEQVFGIGRDLRHALIPAGARMILYVGRLSEEKNLPALIDNLSTLPDDVHLVIVGDGPMQSALMNQVQATGHPERIIFAGKKEGAELYAYYTQADCLVLPSMRECFGSVVNEALIAGVPVVCSDIAGASCLVTESNGRTFSPMLPNALSQACNDLLGSIAPFCGDSLRPSLMPFTFERAIAPVLSLLSR | not soluble
5 | MGSDKIHHHHHHMNPQTRKRQNLTAVYAALLQLMSQKPLSRISITELCQHAQVSRTYFYRNFANFDQIILAYQKQTILQYLRQLPRQSKVKLQVLMTQYFTLMQQMAATNALLIKNEKTQIFIQSFEAVFALLIKQDRIIGSSNTALRQPYYTAYFSGAVINMLVHWQQNGMVETPAYLAQQVTRFTLRDNESRS | not soluble
6 | MGSDKIHHHHHHMNQAMDTKQIAPFTLALPEGEALPLVCDSPHSGTFYPADFGAVVAPERLRGGEDTHVDALWEAVPRVGGTLLAATFPRVYIDPNRMLDDIDPAQLEGPWPTPLAPGEKTRLGYGLIWSNVDAATPIYDRKLTVAEVQRRINRYYRPYHAALTEAVEGAYQRFGAVWHLNLHSMPNNAYERLKIQSPRPLADFVLGDRDGTTCEPGLVDLVERELREKGYTVARNDPYKGVQLIAQIGRPAERRNSLQIEIRRPLYMEEGTRERNEGFATLQRDLTLLTLRIAEYVRRGV | not soluble
7 | MGSDKIHHHHHHMNQDGASPLSETAQPFLQVVGVHKRFTGVHALRGVSLTFERGQIYHLLGENGCGKSTLIKIISGAQPPDQGELVIEGVRHAQLSPLESLAAGIETVYQDLSLLPNMSVAENVALTAELAAHAGKLARTFDRRALARTAARALEAVGLPGSADFQATLIEQLPLATRQLVAIARAIASEAKFVIMDEPTTSLTQKEVDNLIAVLANLRAHGVTVLFVSHKLDECYAIGGEVIVLRDGQKMAQGPIAQFTKARLSELMTGRELSNERYREAGHAQDVVLELRGLTRAGQFSDVSLSLHGGEILGVTGLLDSGRNELARALAGVAPAHAGEVLLDGHAIALRTPSDAKRNRIGYVPEDRLNEGLFLDKPIRDNLITAMISSLRDRFGQIDRARAQALAQQTVKELQIATAGIDKPVQSLSGGNQQRVLIGRWLAIDPRVLILHGPTVGVDVGSRDVIYRIMQRLSQRGIGIILISDDLPELLQNCDRILMMKKGRVASEYRADALDEADLYHALLSEAA | not soluble
8 | MGSDKIHHHHHHMNQDLLHKYFKGETSVDEEKRILNWVDESEENRKTLQKERMLFDIALFTDSKRKMREKAGAGARIIPMLRWSARIAAAVIVAVSCGFLINEYQYDKLAQLQTVTVPAGQRAQITLADGTKVWLNSESTLSYRSDFGRRDRDVELDGEAYFEVAKNKEIPFYVNTETNQVRVVGTHFNVCAYKGSNEFETTLVEGIVDIYAYDNERPLTRLTKNEFFGSYQGKYKKAVLPSYDYLRWREGLYCFDDSPFSCILTKLEKYYNVKITVENPKVLNYRCTGKFKEQDGVEHILKVIQKDHPFTYSISEEGDSIRIE | not soluble
9 | MGSDKIHHHHHHMNREVFITCAVTGSGGSQDRSPHVPRSPKQIADSAIDAAKAGAAIVHCHVRDPETGKPRRDVHLYREVTERIRDANVDVVLNLTAGMGGDMVFGSPEAPLPLNEKGTDMGGATNRMEHVRQCLPEICTLDCGTMNFAEADYVMTNTPGMLRAMGGMMTALGVKPEIEAFDTGHLWFAKQLVEEKVLNPDALVQLCMGVPWGAPDDLNTFMAMVNNVPSTWNWSAFAIGRNQMAYAAAAVLAGGNVRVGLEDNLWLDKGVLATNAQLVERAASIVTNLGARILGPEEVRKKLNLTKRAPIAAAA | not soluble
10 | MGSDKIHHHHHHMNREVVIVGGGPAGMLMGLLLAKEKIQVTVLEKNTTFNRDFRGETIAPGSVFLLKKLGVFKALEEHGFIKVQKIKMYDREEKLFSVNFDDFNHPQKFGIDIPQPVVLEALKQKASSYPNFEYIHGATCTDLIKDGEKVVGIRYSKEKEEHQIKCRLVIGAEGRFSRLRTLGHFAVEKKEFSRDLIWFKVPKPEGWEEGNLIKVYKHDHVIILPTYPNDLRVGTYIYLGGNRETKAKGIAAFIDKVCMIEPRLRKPMEKHIKSWDDTTLLKIFTAHVDQWAKDGLILIGDAAHTLSPILGQGVNIAMQDAFELLPYVNSGLKTYEGPLPAHHFDDYISKRKKQVSFVAGFQERQEQNLAASTPFQCMLRKVKMKLLDKAPFKIKVMKKLQYGVVANETTEGLT | not soluble
11 | MGSDKIHHHHHHMNRGCFDIAVITDREAFQAILDEWNQLADINGYYTPWFCWEWFDLCLRHGETRALHILMVRSGGSLVAVAPFTVRSERYKGVVPARILSSIGGNRSPLKGIVFGDADENMQREVTTLVLEYLRTTFKNWDILELEPVAGSNDGNSIETLIERQGLSFRSYISCANRYCDVADASFDGFFERLPQSTRKDINYCRRRLEKNGSLVFQIITDAASLDQCLDVYDAVRAKSWKAAEKDREFNRELMHVAAGKGWLRLGILSYDGTPIAVQKWIVANGRAYIYDVLYDEEYKKHSPGKILTSMMFQHAIDNERVAYVDYLRGDEPYKEEWTPSLRNRIGIEAYNKSVLGCTASILMKKILPLVKKNTDSTNAHK | not soluble
12 | MGSDKIHHHHHHMNRQVIEFSKYNPSGNMTILVHSKHDASEYASIANQLMAATHVCCEQVGFIESTQNDDGNDFHLVMSGNEFCGNATMSYIHHLQESHLLKDQQFKVKVSGCSDLVQCAIHDCQYYEVQMPQAHRVVPTTINMGNHSWKALEIIYETYVHYVIPVKQVTTEIQHLVEAFVREQQWSHKYKTVGMMLFDEQRQFLQPLIYIPEIQSLIWENSCGSGTASIGVFNNYQRNDACKDFTVHQPGGSILVTSKRCHQLGYQTSIKGQVTTVATGKAYIE | not soluble
13 | MGSDKIHHHHHHMNRRDFLKSALITGAALGLPAGMDPLLTVLKAAERPDLAVVRGTPPAAITRAAIDSLGGMKRFVSRGDVVVVKPNIGWDRTPEYAANTNPEVVGAVVRLCFEAGAKQVKVFDRPVNDPRRTYRQSGIAAAASALGASVLFTDSRKFKDMRINGSSLKSWPLYTEVFEADKVINIPIAKTHGTSKLTLGMKNWMGVMGGWRGRIHQRIDESLVDLATFIKPTLTILDAVRILTDNGPQGGNLADVRRLNMVIAGTDAVAVDAFGATLFGMKPAELGFVRIGHQRRLGSMDLAGMNIRRITL | not soluble
14 | MGSDKIHHHHHHMNRSTRSHKAIVIFSGGQDSTTCLFQAIQEFKRENVEVITFQYGQRHSIELEKAAWIAQNLGIKQTVIDTSVIKAITTNALITEATIKQDGDKPNTFVDGRNALFLLYTAIYAKGQGIQTIFTGVCETDFSGYPDCRDIFIKSMNVTLNLAMDYNFNIRTPLMYLTKKQTWALADQLGAFEYVREHTHTCYLGVEGGCHTCPSCLLREKGLNEYLAEKSGEKNV | not soluble
15 | MGSDKIHHHHHHMNSALYVGKVRHRRFTPVTHRFDYALFMALIDLDEIPALPHAGIALERFAPASFYRGDYLGGGDIKTKAQDRIAELTGERLTGKVLLLCQLRYLGCYFNPVNFYYLYDEHNQLRWLLAEVRNTPWNERHTYAVVPDGSTTVSKAFHVSPFNPMDMVYHWRLTPPVERLRIHIENHRQGREFDATLLLHRQPLTRAALRKQLWSLPLMTIKIACTIYWQALKLWIKRSPVYPHPQSGRKDNP | not soluble
16 | MGSDKIHHHHHHMNSGPVSVACAQGSHGGDVVRLAARLGISPTDILDFSSNANSLCDDLTRQVLAQTGYAHSHYPDSECTGLRHRIAGFEETQPERILAGNGSSELIYLAMHSLKPRRVLLIAPVFSEYVRACQACGADYRLFETDPYDGFDIPERHICRLHDAVTAYRPDMAVICAPSNPACTDYSRMDDILYALDCPHVLVDNSYLDFLWGTPAYSRHGMAAYAGCTRTETKVISLRSMTKFFYCTGVRLGYCHADEQTIERMNRCKTPWSVWHAAQQAGMAFLDRMDEYRLRLPAMRAEKTAFAGALRNTGIFDNNLVLEGANFVTARLQRPAKAATVYTELLQHGILVRLCDNIPGMPQGFIRMQVREKKAWSRLTAILGTLDAE | not soluble
17 | MGSDKIHHHHHHMNSLLASIDSSRAMPVLEDITQHEISALKTRFNLADAHTHQDQSDTQRMIVASLPELWYQAQNQTQYQSEQAFIRAFFTFHGQHHALKRHDEIYLVYAASIAMHITATYLRKNTLSVGLIEPCFDNLHDLLKHMEVPMSPLDESLFSSSSEVYANLQKAAIGLDAIFLVDPNNPTGSSLFADGPDTFVEVARYCRDYNKLLILDFCFASFFMAAGRERVDAYAILDDIGTRYLIMEDTGKTWPLQDTKCATLMASKDINAEIYSIVTSVLLNVSPFILNVVTRYIEDSNDDDFNSVRSVLEVNRRRARDCLEGKVLKYMQPMIDTSVAWFEILPAGIDADELQTYLLQWDVYVLPGKYFYWSQPEKGQRYIRLALARKPEEFDAAVQMIAHALEHFHV | not soluble
18 | MGSDKIHHHHHHMNSLQFPRHGDKENSAFFEEYLVKLLEERDAMGLTAMVHEIDALMITVDPGHSVKYVAELCFMTSYHYLVTLESESHWTHVLRIDLDSPDLLVREVKDPNLRGIFRSLNEIYPVGARKPNSRYMGEIIRVNNLHDVVKLQQEREFRFFTQDEVRKLELPGNLAVSKPSPYTHNIVAYLERKPDEMRVYSLGVSRVDAELQMAYEAAKRLQEKLNFADLLLPIDHLATRVYSQNREVAILEYLSWSSYYFWGAYNIFDQNSSTNVTKSAHGLPESKSPAKVFTANNTPYFVNHLEKLPSPTETFVRNYGPRLHHIAVAVRDGERDGLEHIEFAVNAIASQGKGFLLDVIGSREEGLKQIFSNASEHSSLIVEYVQRFGDFQGFFTKENVAVLTEAAGREEGVKSGASLG | not soluble
